The subject of assay [1] is oligodendrocyte precursor cells. Put plainly: BrdU uptake by oligodendrocyte precursor cells with recombinant FGFs (Example 3). The following applies: FGF at 10, 30 or 100 ng/ml, vs saline control; FIG. 3. Type of assay: cell-based, C57BL/6j mice. The procedure:
Recombinant FGF15 (Abcam), FGF21 (R&D), or FGF23 (R&D) was diluted in saline solution immediately before use to prepare an each FGF-containing solution. Oligodendrocyte precursor cells were harvested from C57BL/6j mice (postnatal day 1-old) brains, as in Example 1.
Initially, the oligodendrocyte precursor cells were seeded in a poly-L-lysinde (Sigma)-coated plastic tissue culture dish, and cultured in the following medium for 1 day (37° C., 5% CO2). The medium used was DMEM containing 4 mM L-gludamine (Sigma), 1 mM sodium pyruvate (Sigma), 0.1% bovine serum albumin (Sigma), 50 μg/ml apo-Transferrin (Sigma), 5 μg/ml insulin (Sigma), 30 nM sodium selenite (Sigma), 10 nM biotin (Sigma), 10 nM hydrocortisone (Sigma), 10 ng/ml Platelet-Derived Growth Factor-AA (Peprotech), and 10 ng/ml basic fibroblast growth factor (Peprotech). Thereafter, each type of FGF-containing solution was added to the culture medium of oligodendrocyte precursor cells such that the concentration of each type of FGF was 10 ng/ml, 30 ng/ml, or 100 ng/ml, and the cells were cultured at 37° C. for 24 hours. BrdU was subsequently added and cultured at 37° C. for 24 hours, and then the cells were collected; the BrdU uptake was then detected using the cell proliferation ELISA, BrdU colorimetric kit (Roche). As a control, an equivalent amount of saline solution was used instead of the FGF21-containing solution, and the BrdU uptake was measured under the same conditions as those described above. This experiment studied three cases for each group.

Assay [2] deals with demyelination model mice. Put plainly: Ladder walk test of hindlimb motor function in demyelination model mice (Example 7). It counts as in vivo, C57BL/6j mice. Particulars: FGF21 administered as in Example 5, FIG. 7. The procedure: Demyelination model mice were created, and recombinant FGF21 was administered, as in Example 5 above. The hindlimb motor function of the mice was examined by performing the ladder walk test. A 1-m long ladder was installed in a position at a height of 15 cm. The mice were allowed to walk on the ladder with random widths of 0.6, 1.2, and 1.8 cm. The number of missed steps was counted, and the proportion (%) of the number of missed steps relative to the total number of steps was calculated. This experiment conducted the study using three mice for each group.

Here are results for one molecule from patent US10293026B2, “Agent for preventing or treating demyelinating disease” (Osaka University, priority 2014, dated 2019).

B1: FGF21: Recombinant fibroblast growth factor 21 (R&D); the claimed active ingredient promoting oligodendrocyte precursor cell proliferation (protein, listed as Homo sapiens)
chain: MDSDETGFEHSGLWVSVLAGLLLGACQAHPIPDSSPLLQFGGQVRQRYLYTDDAQQTEAHLEIREDGTVGGAADQSPESLLQLKALKPGVIQILGVKTSRFLCQRPDGALYGSLHFDPEACSFRELLLEDGYNVYQSEAHGLPLHLPGNKSPHRDPAPRGPARFLPLPGLPPALPEPPGILAPQPPDVGSSDPLSMVGPSQGRSPSYAS
Regarding B1, the “BrdU uptake by the oligodendrocyte precursor cells” value in assay [1] was “markedly increased”. The “number of missed steps on the ladder” value in assay [2] was “decreased”.
